{"source": "paper PMC1874666", "about": "(Nucleic Acids Research, 2007)", "proteins": {"B1": {"name": "Helicobacter pylori neutrophil-activating protein (HP-NAP) (natural protein, UniProt P43313 1-144, looked up)", "chain": "MKTFEILKHLQADAIVLFMKVHNFHWNVKGTDFFNVHKATEEIYEEFADMFDDLAERIVQLGHHPLVTLSEAIKLTRVKEETKTSFHSKDIFKEILEDYKYLEKEFKELSNTAEKEGDKVTVTYADDQLAKLQKSIWMLQAHLA"}}, "molecular_target": "the molecule itself", "assay": "AUC", "data": [{"protein": "B1", "values": [{"measurement": "stoichiometry N", "result": 12}]}]}
